Results taken from paper doi:10.1101/2023.05.10.540081v1.

B1: β-glucosidase B (BglB) (Paenibacillus polymyxa) (protein)
chain: MSENTFIFPATFMWGTSTSSYQIEGGTDEGGRTPSIWDTFCQIPGKVIGGDCGDVACDHFHHFKEDVQLMKQLGFLHYRFSVAWPRIMPAAGIINEEGLLFYEHLLDEIELAGLIPMLTLYHWDLPQWIEDEGGWTQRETIQHFKTYASVIMDRFGERINWWNTINEPYCASILGYGTGEHAPGHENWREAFTAAHHILMCHGIASNLHKEKGLTGKIGITLNMEHVDAASERPEDVAAAIRRDGFINRWFAEPLFNGKYPEDMVEWYGTYLNGLDFVQPGDMELIQQPGDFLGINYYTRSIIRSTNDASLLQVEQVHMEEPVTDMGWEIHPESFYKLLTRIEKDFSKGLPILITENGAAMRDELVNGQIEDTGRHGYIEEHLKACHRFIEEGGQLKGYFVWSFLDNFEWAWGYSKRFGIVHINYETQERTPKQSALWFKQMMAKNGF
B2: β-glucosidase B (BglB) (Paenibacillus polymyxa; V314D) (protein)
chain: MSENTFIFPATFMWGTSTSSYQIEGGTDEGGRTPSIWDTFCQIPGKVIGGDCGDVACDHFHHFKEDVQLMKQLGFLHYRFSVAWPRIMPAAGIINEEGLLFYEHLLDEIELAGLIPMLTLYHWDLPQWIEDEGGWTQRETIQHFKTYASVIMDRFGERINWWNTINEPYCASILGYGTGEHAPGHENWREAFTAAHHILMCHGIASNLHKEKGLTGKIGITLNMEHVDAASERPEDVAAAIRRDGFINRWFAEPLFNGKYPEDMVEWYGTYLNGLDFVQPGDMELIQQPGDFLGINYYTRSIIRSTNDASLLQDEQVHMEEPVTDMGWEIHPESFYKLLTRIEKDFSKGLPILITENGAAMRDELVNGQIEDTGRHGYIEEHLKACHRFIEEGGQLKGYFVWSFLDNFEWAWGYSKRFGIVHINYETQERTPKQSALWFKQMMAKNGF
B3: β-glucosidase B (BglB) (Paenibacillus polymyxa; Y169H) (protein)
chain: MSENTFIFPATFMWGTSTSSYQIEGGTDEGGRTPSIWDTFCQIPGKVIGGDCGDVACDHFHHFKEDVQLMKQLGFLHYRFSVAWPRIMPAAGIINEEGLLFYEHLLDEIELAGLIPMLTLYHWDLPQWIEDEGGWTQRETIQHFKTYASVIMDRFGERINWWNTINEPHCASILGYGTGEHAPGHENWREAFTAAHHILMCHGIASNLHKEKGLTGKIGITLNMEHVDAASERPEDVAAAIRRDGFINRWFAEPLFNGKYPEDMVEWYGTYLNGLDFVQPGDMELIQQPGDFLGINYYTRSIIRSTNDASLLQVEQVHMEEPVTDMGWEIHPESFYKLLTRIEKDFSKGLPILITENGAAMRDELVNGQIEDTGRHGYIEEHLKACHRFIEEGGQLKGYFVWSFLDNFEWAWGYSKRFGIVHINYETQERTPKQSALWFKQMMAKNGF
B4: β-glucosidase B (BglB) (Paenibacillus polymyxa; M224K) (protein)
chain: MSENTFIFPATFMWGTSTSSYQIEGGTDEGGRTPSIWDTFCQIPGKVIGGDCGDVACDHFHHFKEDVQLMKQLGFLHYRFSVAWPRIMPAAGIINEEGLLFYEHLLDEIELAGLIPMLTLYHWDLPQWIEDEGGWTQRETIQHFKTYASVIMDRFGERINWWNTINEPYCASILGYGTGEHAPGHENWREAFTAAHHILMCHGIASNLHKEKGLTGKIGITLNKEHVDAASERPEDVAAAIRRDGFINRWFAEPLFNGKYPEDMVEWYGTYLNGLDFVQPGDMELIQQPGDFLGINYYTRSIIRSTNDASLLQVEQVHMEEPVTDMGWEIHPESFYKLLTRIEKDFSKGLPILITENGAAMRDELVNGQIEDTGRHGYIEEHLKACHRFIEEGGQLKGYFVWSFLDNFEWAWGYSKRFGIVHINYETQERTPKQSALWFKQMMAKNGF

Substrate: O=[N+]([O-])c1ccc(O[C@@H]2O[C@H](CO)[C@@H](O)[C@H](O)[C@H]2O)cc1
Experiment: purified protein
Details: technical triplicates
[1] = biological replicate a of two, low protein yield

Protein | Km | kcat | also measured
B1 | 4.38 mM | 6.1433 s⁻¹ | –
B2 | 6.84 mM | 4.9167 s⁻¹ | –
B3 | – | – | Km (biological replicate a of two): 22.35 mM; kcat (biological replicate a of two): 9.8983 s⁻¹
B4 | – | – | Km [1]: 7.54 mM; kcat [1]: 1.695 s⁻¹
